# Test results reported in patent US20250152704A1 (PARAGON THERAPEUTICS, published 2025).
# Key:
# [1] = biological target: T1, Recombinant in-house Human FcRn protein (human, UniProt P55899 24-297; P61769 21-119, limits assumed); experiment: SPR (Biacore 8K), Fc fusion captured by anti-human Fc on CM5, huFcRn as analyte, 25 C, pH 7.4, 1:1 fit
# T1 construct: also called huFCRN; HuFcRn
# Experimental: (§1) Following a stabilization period in running buffer, the Fc fusion molecules at 20 nM were captured onto flow cell 2 (active) for 60 sec at a flow rate of 30 uL/min. […] Samples were injected in a multi-cycle manner over freshly captured Fc fusion molecule, by regenerating the capture surfaces with injection of 10 mM glycine pH 1.5 for 30 sec at a flow rate of 30 μL/min. The data was processed and analyzed with Biacore Insight Evaluation Software Version 2.0.15.12933 (GE Healthcare) as follows. […] The responses from the two buffer blank injections were then subtracted from the reference subtracted data (2-1) to yield double-referenced data, which were fit to a 1:1 binding model to determine the apparent association (ka) and dissociation rate constants (kd). Their ratio provided the apparent equilibrium dissociation constant or affinity constant (KD=kd/ka).
# [2] = biological target: T1, Recombinant in-house Human FcRn protein; experiment: SPR (Biacore 8K), Fc fusion captured by anti-human Fc on CM5, huFcRn as analyte, 25 C, pH 6.0, 1:1 fit
# Experimental: as §1
# [3] = biological target: T2, human serum albumin (human, UniProt P02768 25-609); experiment: SPR (Biacore 8K), Fc fusion captured by anti-human Fc on CM5, HSA as analyte, 25 C, pH 6.0, 1:1 fit
# T2 construct: also called HSA
# Experimental: as §1
# [4] = biological target: FcRn-GFP; experiment: cell-based or functional assay
# [5] = biological target: T2, human serum albumin; experiment: SPR (Biacore 8K), Fc fusion captured by anti-human Fc on CM5, HSA as analyte, 25 C, pH 7.4, 1:1 fit
# Experimental: as §1
# T2 sequence (P02768 25-609 limits assumed): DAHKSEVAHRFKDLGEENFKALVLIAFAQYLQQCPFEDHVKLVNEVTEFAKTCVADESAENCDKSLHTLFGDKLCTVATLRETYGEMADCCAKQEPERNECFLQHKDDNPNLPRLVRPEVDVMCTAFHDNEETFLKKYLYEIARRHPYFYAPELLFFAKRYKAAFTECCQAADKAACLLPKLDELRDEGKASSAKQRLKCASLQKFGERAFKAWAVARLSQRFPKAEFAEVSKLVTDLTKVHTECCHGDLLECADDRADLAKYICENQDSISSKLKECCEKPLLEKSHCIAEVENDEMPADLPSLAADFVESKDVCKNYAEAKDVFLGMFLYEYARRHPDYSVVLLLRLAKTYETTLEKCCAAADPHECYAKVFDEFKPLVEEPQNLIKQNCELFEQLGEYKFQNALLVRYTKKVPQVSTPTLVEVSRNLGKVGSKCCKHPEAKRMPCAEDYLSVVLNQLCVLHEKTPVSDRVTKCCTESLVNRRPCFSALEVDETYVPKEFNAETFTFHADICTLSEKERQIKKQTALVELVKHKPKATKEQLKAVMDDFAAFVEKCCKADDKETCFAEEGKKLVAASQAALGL
Binder,Kd [1] [nM],Kd [2] [nM],Kd [3] [nM],Average (n = 3) Residual FcRn [4],Kd [5] [nM]
"Fc Fusion Molecule 5 (Fc fusion, Made in CHO cells; also called ABD1-G4S-Efgart) EVQLLESGGGLVQPGGSLRLSCAASGFTFRSFGMSWVRQAPGKGPEWVSSISGSGSDTLYADSVKGRFTISRDNSKNTLYLQMNSLRPEDTAVYYCTIGGSLSRSSQGTLVTVSSGGGGSDKTHTCPPCPAPELLGGPSVFLFPPKPKDTLYITREPEVTCVVVDVSHEDPEVKFNWYVDGVEVHNAKTKPREEQYNSTYRVVSVLTVLHQDWLNGKEYKCKVSNKALPAPIEKTISKAKGQPREPQVYTLPPSRDELTKNQVSLTCLVKGFYPSDIAVEWESNGQPENNYKTTPPVLDSDGSFFLYSKLTVDKSRWQQGNVFSCSVMHEALKFHYTQKSLSLSPG",375,8.07,6.32,,
Fc Fusion Molecule 44 (Fc fusion) chain 1: DKTHTCPPCPAPELLGGPSVFLFPPKPKDTLYITREPEVTCVVVDVSHEDPEVKFNWYVDGVEVHNAKTKPREEQYNSTYRVVSVLTVLHQDWLNGKEYKCKVSNKALPAPIEKTISKAKGQPREPQVCTLPPSRDELTKNQVSLSCAVKGFYPSDIAVEWESNGQPENNYKTTPPVLDSDGSFFLVSKLTVDKSRWQQGNVFSCSVMHEALKYHYTQKSLSLSPGGGGGSGGGGSGGGGSGGGGSGGGGSGGGGSEVQLLESGGGLVQPGGSLRLSCAASGFTFRSAGMSWVRQAPGKGPEWVSSISGSGSDTLYADSVKGRFTISRDNSKNTLYLQMNSLRPEDTAVYYCTIGGSLSRSSQGTLVTVSS chain 2: DKTHTCPPCPAPELLGGPSVFLFPPKPKDTLYITREPEVTCVVVDVSHEDPEVKFNWYVDGVEVHNAKTKPREEQYNSTYRVVSVLTVLHQDWLNGKEYKCKVSNKALPAPIEKTISKAKGQPREPQVYTLPPCRDELTKNQVSLWCLVKGFYPSDIAVEWESNGQPENNYKTTPPVLDSDGSFFLYSKLTVDKSRWQQGNVFSCSVMHEALKYHYTQKSLSLSPG,,,,21,
"Fc Fusion Molecule 11 (Fc fusion, also called ABD1-(G4S)3-Efgart(KIH); ABD1-(G4S)3-Efgart(H)/Efgart(K)) chain 1: EVQLLESGGGLVQPGGSLRLSCAASGFTFRSFGMSWVRQAPGKGPEWVSSISGSGSDTLYADSVKGRFTISRDNSKNTLYLQMNSLRPEDTAVYYCTIGGSLSRSSQGTLVTVSSGGGGSGGGGSGGGGSDKTHTCPPCPAPELLGGPSVFLFPPKPKDTLYITREPEVTCVVVDVSHEDPEVKFNWYVDGVEVHNAKTKPREEQYNSTYRVVSVLTVLHQDWLNGKEYKCKVSNKALPAPIEKTISKAKGQPREPQVCTLPPSRDELTKNQVSLSCAVKGFYPSDIAVEWESNGQPENNYKTTPPVLDSDGSFFLVSKLTVDKSRWQQGNVFSCSVMHEALKFHYTQKSLSLSPG chain 2: DKTHTCPPCPAPELLGGPSVFLFPPKPKDTLYITREPEVTCVVVDVSHEDPEVKFNWYVDGVEVHNAKTKPREEQYNSTYRVVSVLTVLHQDWLNGKEYKCKVSNKALPAPIEKTISKAKGQPREPQVYTLPPCRDELTKNQVSLWCLVKGFYPSDIAVEWESNGQPENNYKTTPPVLDSDGSFFLYSKLTVDKSRWQQGNVFSCSVMHEALKFHYTQKSLSLSPG",371,6.69,7.26,,12
"Fc Fusion Molecule 12 (Fc fusion, also called Efgart(KIH)-(G4S)3-ABD1; Efgart(H)-(G4S)3-ABD1/Efgart(K)) chain 1: DKTHTCPPCPAPELLGGPSVFLFPPKPKDTLYITREPEVTCVVVDVSHEDPEVKFNWYVDGVEVHNAKTKPREEQYNSTYRVVSVLTVLHQDWLNGKEYKCKVSNKALPAPIEKTISKAKGQPREPQVCTLPPSRDELTKNQVSLSCAVKGFYPSDIAVEWESNGQPENNYKTTPPVLDSDGSFFLVSKLTVDKSRWQQGNVFSCSVMHEALKFHYTQKSLSLSPGGGGGSGGGGSGGGGSEVQLLESGGGLVQPGGSLRLSCAASGFTFRSFGMSWVRQAPGKGPEWVSSISGSGSDTLYADSVKGRFTISRDNSKNTLYLQMNSLRPEDTAVYYCTIGGSLSRSSQGTLVTVSS chain 2: DKTHTCPPCPAPELLGGPSVFLFPPKPKDTLYITREPEVTCVVVDVSHEDPEVKFNWYVDGVEVHNAKTKPREEQYNSTYRVVSVLTVLHQDWLNGKEYKCKVSNKALPAPIEKTISKAKGQPREPQVYTLPPCRDELTKNQVSLWCLVKGFYPSDIAVEWESNGQPENNYKTTPPVLDSDGSFFLYSKLTVDKSRWQQGNVFSCSVMHEALKFHYTQKSLSLSPG",492,11.3,33.4,,54.6

# Results, then the binder that gave them:
Kd [1] [nM],Kd [2] [nM],Kd [3] [nM],Average (n = 3) Residual FcRn [4],Kd [5] [nM],Binder
,,,44,,Fc Fusion Molecule 46 (Fc fusion) chain 1: DKTHTCPPCPAPELLGGPSVFLFPPKPKDTLYITREPEVTCVVVDVSHEDPEVKFNWYVDGVEVHNAKTKPREEQYNSTYRVVSVLTVLHQDWLNGKEYKCKVSNKALPAPIEKTISKAKGQPREPQVCTLPPSRDELTKNQVSLSCAVKGFYPSDIAVEWESNGQPENNYKTTPPVLDSDGSFFLVSKLTVDKSRWQQGNVFSCSVMHEALKYHYTQKSLSLSPGGGGGSGGGGSGGGGSGGGGSGGGGSGGGGSGGGGSGGGGSEVQLLESGGGLVQPGGSLRLSCAASGFTFRSAGMSWVRQAPGKGPEWVSSISGSGSDTLYADSVKGRFTISRDNSKNTLYLQMNSLRPEDTAVYYCTIGGSLSRSSQGTLVTVSS chain 2: DKTHTCPPCPAPELLGGPSVFLFPPKPKDTLYITREPEVTCVVVDVSHEDPEVKFNWYVDGVEVHNAKTKPREEQYNSTYRVVSVLTVLHQDWLNGKEYKCKVSNKALPAPIEKTISKAKGQPREPQVYTLPPCRDELTKNQVSLWCLVKGFYPSDIAVEWESNGQPENNYKTTPPVLDSDGSFFLYSKLTVDKSRWQQGNVFSCSVMHEALKYHYTQKSLSLSPG
,,,29,,Fc Fusion Molecule 45 (Fc fusion) chain 1: DKTHTCPPCPAPELLGGPSVFLFPPKPKDTLYITREPEVTCVVVDVSHEDPEVKFNWYVDGVEVHNAKTKPREEQYNSTYRVVSVLTVLHQDWLNGKEYKCKVSNKALPAPIEKTISKAKGQPREPQVCTLPPSRDELTKNQVSLSCAVKGFYPSDIAVEWESNGQPENNYKTTPPVLDSDGSFFLVSKLTVDKSRWQQGNVFSCSVMHEALKYHYTQKSLSLSPGGGGGSGGGGSGGGGSGGGGSGGGGSGGGGSGGGGSEVQLLESGGGLVQPGGSLRLSCAASGFTFRSAGMSWVRQAPGKGPEWVSSISGSGSDTLYADSVKGRFTISRDNSKNTLYLQMNSLRPEDTAVYYCTIGGSLSRSSQGTLVTVSS chain 2: DKTHTCPPCPAPELLGGPSVFLFPPKPKDTLYITREPEVTCVVVDVSHEDPEVKFNWYVDGVEVHNAKTKPREEQYNSTYRVVSVLTVLHQDWLNGKEYKCKVSNKALPAPIEKTISKAKGQPREPQVYTLPPCRDELTKNQVSLWCLVKGFYPSDIAVEWESNGQPENNYKTTPPVLDSDGSFFLYSKLTVDKSRWQQGNVFSCSVMHEALKYHYTQKSLSLSPG
634,2.1,33.8,,45.6,"Fc Fusion Molecule 6 (Fc fusion, Made in CHO cells; also called Efgart-G4S-ABD1) DKTHTCPPCPAPELLGGPSVFLFPPKPKDTLYITREPEVTCVVVDVSHEDPEVKFNWYVDGVEVHNAKTKPREEQYNSTYRVVSVLTVLHQDWLNGKEYKCKVSNKALPAPIEKTISKAKGQPREPQVYTLPPSRDELTKNQVSLTCLVKGFYPSDIAVEWESNGQPENNYKTTPPVLDSDGSFFLYSKLTVDKSRWQQGNVFSCSVMHEALKFHYTQKSLSLSPGGGGGSEVQLLESGGGLVQPGGSLRLSCAASGFTFRSFGMSWVRQAPGKGPEWVSSISGSGSDTLYADSVKGRFTISRDNSKNTLYLQMNSLRPEDTAVYYCTIGGSLSRSSQGTLVTVSS"
